Reference: paper PMC314469, “Protein Interaction Networks by Proteome Peptide Scanning” (PLoS Biology, 2004)

T1: amphyphisin SH3 (AMPH_HUMAN), P49418
T1 chain: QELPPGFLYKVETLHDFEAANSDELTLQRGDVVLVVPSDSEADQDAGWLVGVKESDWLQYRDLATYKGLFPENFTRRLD


What was measured:
[1] = molecular target: T1, amphyphisin SH3 (AMPH_HUMAN), P49418; assay: SPOT array
[2] = molecular target: endophilin SH3 (SH3G2_HUMAN), Q99962; assay: SPOT array

| normalised SPOT signal, Boehringer light units (BLU); mean over the file's lines of this peptide [1] | normalised SPOT signal, Boehringer light units (BLU); mean over the file's lines of this peptide [2] | Binder |
| --- | --- | --- |
| 30.2 | 67 | EKDHIRRPMNAFMI [Q9UEG5 39-52] |
| 53.4 | 2130 | EGNRPKKPPPPSAP [Q9NYR0 332-346] |
| 36.7 | 4.9 | EGTEPRRPRAGPEE [P18887 302-315] |
| 59.7 | 1080 | AGNLPSRPPPLSSP [Q96LQ5 87-101] |
| 166 | 86.2 | ELAHLVRPQKSRPY [P42858 194-207] |
| 29.1 | 39.5 | EGLAFRRPAEYDPK [O95444 171-184] |
| 5580 | 3370 | AGPGPARPPVPPRP [P52849 60-74] |
| 52.6 | 62.9 | EIPKPIKPPTYQVL [O60504 440-454] |
| 50.2 | 0 | EHPEPKRPSVDSLV [Q9C0I2 974-987] |
| 22 | 82 | EHRPLKRPRPRLGP [Q9UHV6 43-56] |
| 87.3 | 70 | EGQQLVRPKKLPLI [Q9H2U9 25-38] |
| 103 | 164 | EKGELGRPGRKGRP [Q9Y215 121-134] |

The next lines start with the binder.

| Binder | normalised SPOT signal, Boehringer light units (BLU); mean over the file's lines of this peptide [1] | normalised SPOT signal, Boehringer light units (BLU); mean over the file's lines of this peptide [2] |
| --- | --- | --- |
| EGNKPQRPPPPRRP [Q04118 252-266] | 5630 | 18200 |
| EKGQPSRPTKSKDA [Q9NSC3 29-42] | 82.2 | 143 |
| EHPRLRRPMPWLLL [Q9Y5I4 12-25] | 85.8 | 783 |
| EIGFPGRPGRPGMN [P39060 984-997] | 139 | 108 |
| AGLRPPKPPRPASL [O75190 254-268] | 2380 | 12300 |
| AALLFLRPPRVRGH [Q9NPN2 39-52] | 8020 | 82.4 |
| EIMSPRKPPLFLTK [BAC04837 210-224] | 136 | 1680 |
| EKIPFERPFRRPNA [Q9NVW8 327-340] | 948 | 123 |
| EKPKLRRPSDRSNG [Q9H9V7 590-603] | 10.1 | 80.5 |
| EGVPFRRPSTFGIP [P78347 776-789] | 31.2 | 112 |
| EIAKLKRPTALKKV [Q93073 574-587] | 16.3 | 85.5 |
| EHREPKRPEIIFLP [O43196 121-134] | 31.2 | 43.4 |
| EGSMLRRPRTSSQH [Q92538 1455-1468] | 115 | 443 |
| ELHVPIRPPRPSSP [O00485 108-122] | 12300 | 3980 |
| ELEQLRRPPGTAER [Q9NZQ6 1526-1539] | 15.8 | 126 |
| EGTYPRRPGSSPKV [Q9UJX9 322-335] | 54.8 | 73.1 |
| EHRPPEKPPRPPRP [Q8TEL4 107-121] | 9830 | 9880 |
| EKPILDRPTRISQP [Q9Y403 100-113] | 57.1 | 0.6 |
| EGPSPARPPRRRTS [Q9Y5L9 2452-2466] | 16700 | 5340 |
